# Changes are numbered by the printed parent chain.
# Assays:
# [1] = molecular target: T1, AcFur SII E106A;H123A (Acidithiobacillus caldus MTH-04) (UniProt A0A060A2G1); assay: EMSA; details: EMSA: 0.4 nM DNA, 0/2/4/8 nM protein, 10 mM Tris-HCl pH 8.0, 100 mM NaCl, 1 mM MnCl2, room temperature, 30 min; 5% native PAGE in 0.5x TBE, EB stain
# T1 sequence: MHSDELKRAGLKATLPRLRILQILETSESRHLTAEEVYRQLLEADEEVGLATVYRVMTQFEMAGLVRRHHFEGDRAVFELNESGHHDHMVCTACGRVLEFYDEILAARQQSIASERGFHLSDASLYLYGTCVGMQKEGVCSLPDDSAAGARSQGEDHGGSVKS
# [2] = molecular target: T2, AcFur SI H31A;H88A (Acidithiobacillus caldus MTH-04) (UniProt A0A060A2G1); assay: EMSA; details: EMSA: 0.4 nM DNA, 0/2/4/8 nM protein, 10 mM Tris-HCl pH 8.0, 100 mM NaCl, 1 mM MnCl2, room temperature, 30 min; 5% native PAGE in 0.5x TBE, EB stain
# T2 sequence: T1 sequence with H31A, H88A, A106E, A123H
Sequence,binding [1],binding [2]
GCGTAGGACGTCCTTGATAACTGCAACTAAGTTGCATATATTCCGCACGACCACTCCGCGCGTCCCTGGGGAGCTTGACCGGTAAGTCTATTTATTGAATGATAATGATTAGCATTTATATTATTTGGAGAGATTGTCCATGCGTCGTATACCCCTCTGTGCGCTGCTGAGCACCATGCTTGCTTCCAGC (double strand) [feoP promoter],binds more weakly,no binding
TTCCACCTGCTCACCTGCGCGGGCCGAGCTCAGGCGGTGGGGGGAAAGGACTTGGGTCATGACGCTCACACTCCCAACGAGTTCGTGGGGACACTATATCATAATGGTAATCATTTGCAATATCAGCCCAAGGGAGGGCCGTCCCGGCGGACGCAGCCGCCGACGCTCAGTCCAGGTCGCCGTGCCTGGGTGTAAAACGC (double strand) [feoABC operator (feoA promoter)],binds more weakly,no binding

# Reference: paper PMC7237784
